Measured values from patent US20210252040.

Molecular target: α-enolase of Enterococcus faecalis V583, surface-expressed

B1: human glu-plasminogen (Haematologic technologies) (protein)
chain: KVYLSECKTGNGKNYRGTMSKTKNGITCQKWSSTSPHRPRFSPATHPSEGLEENYCRNPDNDPQGPWCYTTDPEKRYDYCDILECEEECMHCSGENYDGKISKTMSGLECQAWDSQSPHAHGYIPSKFPNKNLKKNYCRNPDRELRPWCFTTDPNKRWELCDIPRCTTPPPSSGPTYQCLKGTGENYRGNVAVTVSGHTCQHWSAQTPHTHNRTPENFPCKNLDENYCRNPDGKRAPWCHTTNSQVRWEYCKIPSCDSSPVSTEQLAPTAPPELTPVVQDCYHGDGQSYRGTSSTTTTGKKCQSWSSMTPHRHQKTPENYPNAGLTMNYCRNPDADKGPWCFTTDPSVRWEYCNLKKCSGTEASVVAPPPVVLLPDVETPSEEDCMFGNGKGYRGKRATTVTGTPCQDWAAQEPHRHSIFTPETNPRAGLEKNYCRNPDGDVGGPWCYTTNPRKLYDYCDVPQCAAPSFDCGKPQVEPKKCPGRVVGGCVAHPHSWPWQVSLRTRFGMHFCGGTLISPEWVLTAAHCLEKSPRPSSYKVILGAHQEVNLEPHVQEIEVSRLFLEPTRKDIALLKLSSPAVITDKVIPACLPSPNYVVADRTECFITGWGETQGTFGAGLLKEAQLPVIENKVCNRYEFLNGRVQSTELCAGHLAGGTDSCQGDSGGPLVCFEKDKYILQGVTSWGLGCARPNKPGVYVRVSRFVTWIEGVMRNN
- plasmin activity assay with enolase-blocking antibodies: The data is consistent with surface-expressed alpha-enolase being one of multiple PLG receptors on E. faecalis
